T1: human CLDN18.2 on cells (HEK293-hCLDN18.2, DAN-G-hCLDN18.2, NUGC-4) (human, UniProt P56856-2 1-261)
T1 sequence (looked up): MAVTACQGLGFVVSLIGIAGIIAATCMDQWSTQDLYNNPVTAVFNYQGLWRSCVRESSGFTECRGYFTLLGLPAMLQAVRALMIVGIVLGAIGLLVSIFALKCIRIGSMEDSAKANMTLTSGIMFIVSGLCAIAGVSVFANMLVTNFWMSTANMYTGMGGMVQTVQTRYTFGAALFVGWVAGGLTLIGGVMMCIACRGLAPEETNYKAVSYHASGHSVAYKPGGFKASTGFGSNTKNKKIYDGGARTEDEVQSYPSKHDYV


Tests used:
[1] = molecular target: T1, human CLDN18.2 on cells …; assay: cell-based or functional assay
[2] = molecular target: T1, human CLDN18.2 on cells …; assay: flow cytometry of hybridoma supernatant on HEK293-hCLDN18.2 cells
Description: In the present invention, H2L2 fully human antibody transgenic mice (purchased from Harbour BioMed) were immunized with the cells obtained in Example 1 (CHO-hCLDN18.2) by using the hybridoma technology. Spleen cells from the mice were then harvested and electrofused with myeloma cells. […] The test cells (HEK293-hCLDN18.2) obtained in Example 1 were counted, diluted to 1×10⁶ cells/mL, and then added to a U-bottom 96-well plate at 100 µL/well. The cells were centrifuged at 500 g for 5 min, and the cell medium was removed. The hybridoma culture supernatant in a 96-well plate was added to the U-bottom plate at 100 μL/well, the cells were resuspended, and the suspension was left to stand on ice for 30 min. The suspension was centrifuged at 500 g for 5 min, the supernatant was removed, and the cells were washed once with PBS. 100 μL of FITC-labeled anti-mouse Fab secondary antibody (1:500 dilution in PBS) was added to each well, and 100 μL of FITC-labeled anti-human Fab secondary antibody was added to the positive control antibody. The resulting mixture was incubated on ice in the dark for 30 min. The mixture was centrifuged at 500 g for 5 min, the supernatant was removed, and the cells were washed once with PBS. The cells were resuspended in 50 μL of 1×PBS, and the suspension was loaded for FACS assay. […]

Binder	EC50 of in vitro T cell (PBMC) killing of gastric cancer cells NUGC-4 [1] [pM]	EC50 of in vitro T cell (PBMC) killing of pancreatic cancer cells DAN-G-hCLDN18.2 [1] [pM]	binding result [2]
bispecific antibody 030 (anti-CLDN18.2 moiety HB37A6 x anti-CD3 moiety HzSP34.24) (bispecific antibody, human IgG1, kappa, lambda, L234A L235A) heavy 1: not shown light 1: not shown heavy 2: not shown light 2: QAVVTQEPSLTVSPGGTVTLTCRSSTGAVTTSNYANWVQQKPGQAPRGLIGGTNKRAPGVPARFSGSLLGDKAALTLLGAQPEDEAEYYCALWYSNLWVFGQGTKLTVLGQPKAAPSVTLFPPSSEELQANKATLVCLISDFYPGAVTVAWKADSSPVKAGVETTTPSKQSNNKYAASSYLSLTPEQWKSHRSYSCQVTHEGSTVEKTVAPTECS	< 1	< 0.1	–
bispecific antibody 032 (anti-CLDN18.2 moiety HB37A6 x anti-CD3 moiety HzSP34.87) (bispecific antibody, human IgG1, kappa, lambda, L234A L235A) heavy 1: not shown light 1: not shown heavy 2: not shown light 2: QAVVTQEPSLTVSPGGTVTLTCRSSTGAVTTSNYANWVQQKPGQAPRGLIGGTNKRAPGVPARFSGSLLGDKAALTLLGAQPEDEAEYYCALWYSNLWVFGQGTKLTVLGQPKAAPSVTLFPPSSEELQANKATLVCLISDFYPGAVTVAWKADSSPVKAGVETTTPSKQSNNKYAASSYLSLTPEQWKSHRSYSCQVTHEGSTVEKTVAPTECS	< 1	< 0.1	–
fully human antibody clone HB37A6 (hybridoma culture supernatant) (antibody, V domains shown, Tested as hybridoma supernatant from H2L2 transgenic mice; also called anti-CLDN18.2 antibody) VH: EVQLLDSGGGLVQPGGSLRLSCAASGFTFSSYVMSWVRQAPGKGLNWVSTISHSGGSTYYADSVKGRFTISRDNSKNTLYLQMNSLRAEDTAVYYCAIDAPYYDILTGYRYWGQGTLVTVSS VL: not shown	–	–	binds
